# Measured values taken from paper PMC139973.
# B1: CXCR4: N11Q/N176Q (protein)
# parent chain: MEGISIYTSDNYTEEMGSGDYDSMKEPCFREENANFNKIFLPTIYSIIFLTGIVGNGLVILVMGYQKKLRSMTDKYRLHLSVADLLFVITLPFWAVDAVANWYFGNFLCKAVHVIYTVNLYSSVLILAFISLDRYLAIVHATNSQRPRKLLAEKVVYVGVWIPALLLTIPDFIFANVSEADDRYICDRFYPNDLWVVVFQFQHIMVGLILPGIVILSCYCIIISKLSHSKGHQKRKALKTTVILILAFFACWLPYYIGISIDSFILLEIIKQGCEFENTVHKWISITEALAFFHCCLNPILYAFLGAKFKTSAQHALTSVSRGSSLKILSKGKRGGHSSVSTESESSSFHSS
# B2: CXCR4: T13A (protein)
# parent chain: B1 parent chain
# B3: CXCR4: N11Q (protein)
# parent chain: B1 parent chain
# B4: CXCR4: S178A (protein)
# parent chain: B1 parent chain
# B5: CXCR4: N176Q (protein)
# parent chain: B1 parent chain
# Assay: p24 ELISA of virus replication over 12 days
# Conditions: glycan lost; control: CXCR4 wt cells
row,Protein,other: cell permissiveness for HIV-1 (coreceptor function)
1,B1,no change
2,B2,no change
3,B3,no change
4,B4,no change
5,B5,no change

# Assay: flow cytometry, PE-labelled mAb 12G5, cell surface
# Conditions: glycan lost; control: CXCR4 wt (CXCR4+g1g2)
row,Protein,"expression_or_secretion, percent_of_wt"
1,B4,no change
2,B5,no change
